According to patent publication US20250319129A1:
Like-named read-outs stand apart in the source and are kept apart here. Values belong to the binder of their own block, whether it stands above or below them.

Tests used:
Assay in all cases: cell-based or functional assay
CLDN18.1 (human) = CLDN18.1 (human) (UniProt P56856)
CLDN18.2 (human), P56856 [1] = target: CLDN18.2 (human), P56856
CLDN18.2 (human), P56856 [2] = target: CLDN18.2 (human), P56856; remark: listed apart in the source

cytokine secretion (IFN-γ) (CLDN18.1 (human)): < 100 µg/mL
B1: 21011 chimeric antigen receptor (on CAR-T cells) (protein, part only; not given: hinge, transmembrane and signalling parts, part only)
chain, part: EVQLVESGGGLVQPGGSLRLSCAASGSIFSVNGIMWYRQAPGKQRELVAARYTGSVIDSGKTGTGRFTISRDNAKNTLYLQMNSLRAEDTAVYYCNAPTAALTRVEWDVYSLWGQGTLVTVSS

cytokine secretion (IFN-γ) (CLDN18.1 (human)): < 100 µg/mL
B2: 21009 chimeric antigen receptor (on CAR-T cells) (protein, part only; not given: hinge, transmembrane and signalling parts, part only)
chain, part: EVQVVESGGGLVQPGGSLRLSCAASGNIFRTDIGMWYRQAPGKGRELVAGTTTGRSGYVDKASIGRFTISRDNAKNTMYLQMNSLRAEDTAVYYCNAYGVWEQTPFDALRWGQGTLVTVSS

cytokine secretion (IFN-γ) (CLDN18.1 (human)): < 100 µg/mL
B3: 21050 chimeric antigen receptor (on CAR-T cells) (protein, part only; not given: hinge, transmembrane and signalling parts, part only)
chain, part: QVQLQQPGAELVRPGASVKLSCKASGYTFTSYWINWVKQRPGQGLEWIGNIYPSDSYTNYNQKFKDKATLTVDKSSSTAYMQLSSPTSEDSAVYYCTRSWRGNSFDYWGQGTTLTVSSGGGGSGGGGSGGGGSDIVMTQSPSSLTVTAGEKVTMSCKSSQSLLNSGNQKNYLTWYQQKPGQPPKLLIYWASTRESGVPDRFTGSGSGTDFTLTISSVQAEDLAVYYCQNDYSYPFTFGSGTKLEIK

IFN-γ secretion levels (CLDN18.2 (human), P56856 [1]): > 10000 pg/mL | IFN-γ secretion levels (CLDN18.2 (human), P56856 [2]): > 5000 pg/mL
B4: 21047 chimeric antigen receptor (on CAR-T cells) (protein)
chain: QVQLVESGGGLVQPGGSLRLSCAASGSIFNIPVMGWYRQAPGKQRELVAGISTGGTTNYGDSVKGRFTISRDNAKNTVYLQMNSLKPEDTAVYYCNVLVVSGIGSTLEVWGQGTLVTVSSIEVMYPPPYLDNEKSNGTIIHVKGKHLCPSPLFPGPSKPFWVLVVVGGVLACYSLLVTVAFIIFWVRSKRSRLLHSDYMNMTPRRPGPTRKHYQPYAPPRDFAAYRSRVKFSRSADAPAYQQGQNQLYNELNLGRREEYDVLDKRRGRDPEMGGKPRRKNPQEGLYNELQKDKMAEAYSEIGMKGERRRGKGHDGLYQGLSTATKDTYDALHMQALPPR
